Measured values published in patent US9750814B2, “Polypeptides to inhibit epstein barr viral protein BHRF1 and B cell lymphoma family proteins” (priority 2014, dated 2017).

T1: Bfl-1 (Homo sapiens, UniProt Q16548, C4S)
T1 sequence (Q16548 1-153 C4S): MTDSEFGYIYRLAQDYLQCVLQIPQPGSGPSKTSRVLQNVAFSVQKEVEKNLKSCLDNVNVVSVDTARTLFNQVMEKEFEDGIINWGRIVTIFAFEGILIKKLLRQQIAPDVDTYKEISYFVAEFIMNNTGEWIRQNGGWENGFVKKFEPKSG

T2: Bcl-B (Homo sapiens, UniProt Q9HD36)
T2 construct: Bcl-B a.a; 11-175 (NP_065129.1); made in house; host or cells: E. coli BL21* (DE3)
T2 sequence (Q9HD36 11-175): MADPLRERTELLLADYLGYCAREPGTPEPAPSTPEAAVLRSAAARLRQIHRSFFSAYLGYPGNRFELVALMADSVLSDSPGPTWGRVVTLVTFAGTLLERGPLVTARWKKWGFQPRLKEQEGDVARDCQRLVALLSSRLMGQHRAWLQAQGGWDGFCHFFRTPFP


Tests used:
BHRF1 = BHRF1 (Epstein-Barr virus, UniProt P03182)
Method: Proteins (20 nmol each) were injected in a 200 μl loop in line with a Superdex-75 10/300 column (GE Healthcare) and separated with running buffer (20 mM Tris-Cl pH 7.5, 150 mM NaCl, 1 mM DTT) at room temperature.

[1] = test system: mitochondria from six EBV-positive and four EBV-negative cancer lines; test: Cytochrome c release from isolated mitochondria, panel of cancer lines; assay type: cell-based, human; settings: 10 μM
Method: (§1) Cells (˜10^9) were equilibrated in 5 ml of homogenization buffer (0.25 M sucrose, 1 mM EGTA, 10 mM HEPES/NaOH, 0.5% BSA, pH 7.4, Roche Complete protease inhibitors) for 5 min. Samples were kept on ice or at 4° C. until assayed. Cells were homogenized under N2 pressure (400 psi) in a steel disruption vessel (Parr Instrument Company) for 10 min, then centrifuged (750 g) for 10 min to remove intact cells. Supernatant was centrifuged again (12,000 g) for 12 min to collect mitochondria. The pellet was resuspended in 300 μl wash buffer (0.25 M sucrose, 1 mM EDTA, 10 mM Tris/HCl pH 7.4). Proteins at the indicated concentrations were incubated with mitochondria (25 μg mitochondrial protein based on BCA assay, Sigma) in 50 μl final volume of experimental buffer (125 mM KCl, 10 mM Tris-MOPS pH 7.4, 5 mM glutamate, 2.5 mM malate, 1 mM K-PO4, 10 μM EGTA-Tris pH 7.4) for 30 min at room temperature. Reaction solutions were centrifuged (18,000 g) for 10 min at 4° C. and cytochrome c release was quantified using a Cytochrome c ELISA kit (Life Technologies). Complete cytochrome c release was quantified by treatment with 0.5% Triton-X100.
(§2) Ramos, Ramos-AW, Daudi, Raji, DOHH2, JVM-2, and JVM-13 were grown in RPMI 1640 containing L-glutamine and 25 mM HEPES supplemented with 1% penicillin-streptomycin (GIBCO) and 10% fetal bovine serum (FBS, Invitrogen). […]

Mcl-1 = target: T3, Mcl-1 (Homo sapiens, UniProt Q07820); test: Bio-layer interferometry (BLI), immobilized Mcl-1; assay type: binding; settings: BLI; for Kd: lower bound in μM
T3 construct: Mcl-1 a.a; made in house; host or cells: E. coli BL21* (DE3)
Source text: (§3) 11-175 (NP_065129.1), Mcl-1 a.a. […] For later BLI analysis, Bcl-B and Bfl-1 were genetically fused to C-terminal maltose-binding-protein with an avi-6his tag for improved solution properties. Codon usage was optimized for E. coli expression. […] The genes for individually-tested designed proteins were assembled from oligos (Hoover and Lubkowski, 2002) and cloned into pET29b (NdeI-XhoI sites) with C-terminal 6his tags for purification from E. coli, or cloned into PETCON (NdeI-XhoI sites; (Fleishman et al., 2011)) for yeast surface expression. Alternative tags were added using PCR methods. Point mutations were made by overlapping PCR (Procko et al., 2013). Error-prone PCR with an average error rate of 1.3 amino acid substitutions per clone used GeneMorph II Random Mutagenesis (Agilent Technologies).
(§4) Purified avi-6his-tagged ligands (20 μM) in reaction buffer (250 mM potassium glutamate, 20 mM Tris-Cl [pH 7.5], 50 mM bicine [pH 8.3], 10 mM ATP, 10 mM MgOAc, 100 μM d-biotin) were enzymatically biotinylated with 150 U/μl BirA (Avidity) at room temperature overnight, followed by purification with NiNTA-agarose and SEC. Biotinylated ligands were stored at 4° C. in 150 mM NaCl, 20 mM Tris-Cl (pH 7.5), 1 mM DTT, 0.02% sodium azide.
(§5) Data were collected on an Octet RED96 (Forte Bio) and processed using the instrument's integrated software. […] Biosensors were dipped in solutions containing the analyte of interest to measure association, and transferred back to empty binding buffer for monitoring dissociation. Kinetic constants were determined from the mathematical fit of a 1:1 binding model.

[2] = test system: mitochondria isolated from Ramos-AW (EBV-positive) and Ramos (EBV-negative) cells; test: Cytochrome c release from isolated mitochondria, Ramos-AW versus Ramos; assay type: cell-based, human; settings: 30 min
Method: as §1, §2

Bfl-1 = target: T1, Bfl-1; test: Bio-layer interferometry (BLI), immobilized Bfl-1; assay type: binding; set-up: Bfl-1 a.a; made in house; host or cells: E. coli BL21* (DE3); settings: lower bound in μM
Source text: as §3, §4, §5

[3] = assay type: physicochemical; settings: for unfolding behaviour in guanidinium hydrochloride: loss of CD signal at 222 nm
Method: CD spectra were recorded with a Model 420 spectrometer (AVIV Biomedical) or a J-1500 Circular Dichroism Spectrometer (JASCO). Unless stated otherwise, proteins were at 20 μM in PBS and data were collected at 25° C.

Bcl-B = target: T2, Bcl-B; test: Bio-layer interferometry (BLI), immobilized Bcl-B; assay type: binding; settings: lower bound in μM
Source text: as §3, §4, §5

Bfl-1-dependent MEF line = test: Long-term survival (colony) assay, Bfl-1-dependent MEFs; assay type: cell-based, mouse; settings: seven day colony survival, doxycycline-induced expression
Source text: Mouse embryonic fibroblasts were generated from E13-E14.5 embryos derived from CreERT2/Bcl-x^fl/fl/Mcl-I^fl/fl C57BL/6 mice (Kelly et al., 2014) and immortalized (at passage 2-4) with SV40 large T antigen. Retroviral expression constructs in the pMIG vector (Murine Stem Cell Virus-IRES-GFP) expressing each FLAG-tagged pro-survival protein were transiently transfected using LIPOFECTAMINE™ (Invitrogen), into Phoenix ecotropic packaging cells. Filtered virus-containing supernatants were used to infect the MEFs by spin inoculation as previously described (Lee et al., 2008). Cells stably expressing each pro-survival protein were selected by sorting GFP^+ve cells 24 hours after spin inoculation and protein expression verified by Western blotting using an anti-FLAG antibody. Following verification of exogenous pro-survival protein expression, each cell line was treated with 1 μM Tamoxifen (Sigma-Aldrich) to enable deletion of endogenous Mcl-1 and Bcl-xL. Deletion of endogenous Mcl-1 and Bcl-xL was shown by Western blotting using anti-Mcl-1 (Rockland Clone, 600-401-394) and anti-Bcl-xL (BD Transduction Laboratories Clone 44/Bcl-x) antibodies. Cells were maintained in DME Kelso medium supplemented with 10% (v/v) fetal bovine serum, 250 mM L-asparagine and […] 2-mercaptoethanol.
Inducible αMCL1 and αBFL1 constructs were generated in a lentiviral vector described in Aubrey et al. (2015). […]

colon cancer cell lines = test: Long-term survival assay, colon cancer cell lines; assay type: cell-based, human; settings: long-term survival assay
Method: Inducible αMCL1 and αBFL1 constructs were generated in a lentiviral vector described in Aubrey et al. (2015). Ligand expression is linked via the T2A peptide to mCherry™ fluorescent reporter protein. […] Viral supernatants were then filtered prior to target cell transduction. […] For infection of MEFs and colon cancer cell lines, equal volume of virus-containing supernatant was added to target cells pre-incubated with 10 ng/μL polybrene, and centrifuged at 2500 rpm for 2 hours at 32° C. Following spin inoculation, cells were then incubated overnight at 37° C. Cells expressing the doxycycline-inducible constructs were then selected by sorting mCherry^+ve cells. MEFs were maintained in DME Kelso medium supplemented with 10% (v/v) FBS, 250 mM L-asparagine and […] 2-mercaptoethanol. Colon cancer cell lines were maintained in DMEM/F-12 supplemented with 10% (v/v) FBS.
MEF and colon cancers were seeded in 6-well tissue culture plates in 2 mL culture media at 150 cells per mL. The next day and every 48 hours following, doxycycline was added at a final concentration of 1 μg/mL to each well, while nothing was added to control wells.

Bcl-2 = target: T4, Bcl-2 (Homo sapiens, UniProt P10415); test: Bio-layer interferometry (BLI), immobilized Bcl-2; assay type: binding
T4 construct: human Bcl-2 a.a; made in house; host or cells: E. coli BL21* (DE3)
Source text: as §3
as §4, with “Biotinylated ligands were stored at 4° C. in 150 mM NaCl, 20 mM Tris-Cl (pH 7.5), 1 mM DTT, 0.02% sodium azide.” left out
Data were collected on an Octet RED96 (Forte Bio) and processed using the instrument's integrated software. […] Kinetic constants were determined from the mathematical fit of a 1:1 binding model.

T3 sequence (Q07820 172-327): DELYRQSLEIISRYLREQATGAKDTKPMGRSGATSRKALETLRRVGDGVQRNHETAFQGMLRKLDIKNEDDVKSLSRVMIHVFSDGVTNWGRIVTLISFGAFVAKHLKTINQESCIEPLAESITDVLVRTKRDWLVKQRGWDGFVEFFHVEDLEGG
BHRF1, sequence (P03182 1-161): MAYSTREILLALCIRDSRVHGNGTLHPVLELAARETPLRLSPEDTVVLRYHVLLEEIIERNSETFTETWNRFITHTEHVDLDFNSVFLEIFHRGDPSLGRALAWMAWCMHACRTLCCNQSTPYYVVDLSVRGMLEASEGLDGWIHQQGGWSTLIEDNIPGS
T4 sequence (P10415 1-207): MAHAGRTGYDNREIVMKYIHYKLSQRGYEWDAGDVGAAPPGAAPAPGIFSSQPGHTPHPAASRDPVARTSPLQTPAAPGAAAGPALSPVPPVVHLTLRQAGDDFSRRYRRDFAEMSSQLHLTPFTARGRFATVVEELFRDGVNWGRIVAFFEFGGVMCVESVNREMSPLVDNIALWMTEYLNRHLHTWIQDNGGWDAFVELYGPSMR

Molecule	Kd (Bfl-1) [µM]	Kd (Bcl-B) [µM]	Kd (Mcl-1) [µM]	protein stability relative to the original computational design [3]	other results
BbpD04.2: BbpD04.1 with four mutations: I21L, Q79L, I84Q and H104R (protein) ADWKKVLDKAKDIAENRVRELKQKLEEFYKEAMKLDLTQEMRRKLMLRWIAAMLMAIGDIFNAIRQAKQEADKLKKAGLVNSQQLDELKRRLEELKEEASRKCRDYGREFQLKLEY					elution by SEC when mixed with BHRF1 (BHRF1; in solution): higher molecular weight (MW) complex; state by SEC after purification from E. coli (BHRF1; protein alone): monodisperse and monomeric
BINDI N62S: BINDI variant with N62S (protein) ADPKKVLDKAKDQAENRVRELKQKLEELYKEARKLDLTQEMRRKLELRYIAAMLMAIGDIYSAIRQAKQEADKLKKAGLVNSQQLDELKRRLEELKEEASRKARDYGREFQLKLEY					cytochrome c release ([1]; Raji and JVM-2): low levels of cytochrome c release; cytochrome c release ([1]; Ramos-AW, Daudi, Granta 519, JVM-13): high cytochrome c release; change of affinity for Mcl-1 relative to BINDI (Mcl-1): diminished six-fold; cytochrome c release, Ramos-AW compared with Ramos mitochondria [2]: enhanced apoptotic activity against EBV-positive Ramos-AW
X-CDP07: SEQ ID NO: 47; target Bcl-xL (protein) ADPKKVLDKAKDRAENVVRKLKKELEELYKEARKLDLTQEMRDRIRLAAIAARIAAFGDIFHAIMEALEEARKLKKAGLVNSQQLDELKRRLEELDEEAAQRAEKLGKEFELKLEY	> 50				
M-CDP02: SEQ ID NO: 29; target Mcl-1 (protein) ADPKKVLDKAKDQAENRVRELKQELEELYKEARKLDLTQEERRKLEESYIAAMLRAIGDIFNAIMQAKNEADKLKKAGLVNSQQLDELRRRLEELRKEASLKAEDYGREFQEKLEY					unfolding behaviour in guanidinium hydrochloride [3]: unfolded over broad denaturant concentration ranges
XINDI: SEQ ID NO: 4; target Bcl-XL (protein) ADPKKVLDKAKDRAENVVRKLKKELEELYKEARKLDLTQEMRDRIRRTAIAARFQAHGDIFHAIKHAKEEARKLKKAGLVNSQQLDELKRRLRELDEEAEQRAEKLGKEFRLKLEY	> 50	> 50	> 50	slightly to moderately decreased	
M-CDP05: SEQ ID NO: 32; target Mcl-1 (protein) ADPKKVLDKAKDQAENRVRELKQKLEELYKEARKLDLTQEERHRLETKALSALLAAIGDILDAIMQALQEAAKLKKAGLVNSQQLDELKRRLEELRKEASRKARDYGREFWLKLDY					unfolding behaviour in guanidinium hydrochloride [3]: unfolded over broad denaturant concentration ranges
FINDI: SEQ ID NO: 6; target Bfl-1 (protein) ADPKKVLDKAKDQAENRVRELKQKLEELYKEARKLDLTQEKRKKLEVATLGAVLAAHGDILNAIMQAKEEADKLKKAGLVNSQQLDELKRRLEELKEEALRKASDYGNEFHLKRRY				slightly to moderately decreased	decrease in survival (Bfl-1-dependent MEF line): 85±6%; decrease in RKO cell survival (colon cancer cell lines): 63±4%
WINDI: SEQ ID NO: 265; target Bcl-w (protein) DPKKVFDELKDRAENNVRRLKQKLEELYKEARKKDLTQEEREKLKTKYKTAMQLAALAAEGDIMNALLKARKLHKNGQVNEQQLEELARRLMELAKEAFQKAKDYANEFKYKLEY	> 25	> 25	> 25		
2-INDI: SEQ ID NO: 3; target Bcl-2 (protein) ADPKKVLDKAKDEAENRVRELKQRLEELYKEARKLDLTQEMRQELVDKARAASLQANGDIFYAILRALAEAEKLKKAGLVNSQQLDELKRRLEELAEEARRKAEKLRDEFRLKLEY	> 75	> 75	> 75	slightly to moderately decreased	fold weaker affinity for the next tightest binding BCL2 family protein (target Bcl-2) (Bcl-2): > 2,000 fold
